{"source": "patent US20210147552A1", "about": "(UNIVERSITETET I OSLO, published 2021)", "binders": {"B1": {"name": "220 hIgG1 (antibody, V domains shown)", "VH": "QVQLVESGAEVKKPGSSVKVSCKASGGTFSSYAISWVRQAPGQGLEWMGGIIPIFGTANYAQKFQGRATITADESTSTAYMELSSLRSEDTAVYYCARGRNTYCSGGSCYSPHFDYWGQGTLVTVSS", "VL": "not shown", "notes": "full-length human IgG1/kappa"}, "B2": {"name": "206 hIgG1 (antibody, V domains shown)", "VH": "QVQLVQSGAEVKKPGSSVKVSCKASGGTFSSYAISWVRQAPGQGLEWMGGIIPIFGTANYAQKFQGRVTITADESTSTAYMELSSLRSEDTAVYYCARDVQRMGMDVWGQGTTVTVSS", "VL": "DIQMTQSPSSVSTSVGDRVTITCRASQDISNWLAWYQQKPGKAPKLLIYDSSTLQSGVPSRFSGSGSGTDFTLTISTLQPEDFATYYCQQFNSYPLTFGGGTKVDIKR", "notes": "full-length human IgG1/kappa"}, "B3": {"name": "R3A2-9F hIgG1 (antibody)", "heavy": "not shown", "light": "DIQVTQSPSFLSASVGDRVTITCRASHDISSYLAWYQHKPGKAPKLLIHAASILQSGVPSRFSGSGSGTEFTLTISSLQPEDFATYYCQDLNSYPLFGQGTRLEIKRTVAAPSVFIFPPSDEQLKSGTASVVCLLNNFYPREAKVQWKVDNALQSGNSQESVTEQDSKDSTYSLSSTLTLSKADYEKHKVYACEVTHQGLSSPVTKSFNRGEC", "notes": "also called mAb R3A2-9F"}, "B4": {"name": "R4A1-3A (107) hIgG1 (antibody, V domains shown)", "VH": "QVQLQQSGPGLVKPSQTLSLTCAISGDSVSSNSAAWNWIRQSPSRGLEWLGRTYYRSKWYNDYAVSVKSRITINPDTSKNQFSLQLNSVTPEDTAVYYCARDSSSGWHPYGMDVWGQGTTVTVSS", "VL": "DIQVTQSPSFLSASVGDRVTITCRASHDISSYLAWYQHKPWKAPKLLIHAASILQSGVPSRFSGSGSGTEFTLTISSLQPEDFATYYCQDLNSYPLFGQGTRLEIKR", "notes": "full-length human IgG1/kappa made in HEK293E; heavy chain constant region with N297G; also called mAb R4A1-3A"}, "B5": {"name": "228 hIgG1 (antibody, V domains shown)", "VH": "QVQLVQSGAEVKKPGSSVKVSCKASGGTFSSYAISWVRQAPGQGLEWMGGIIPIFGTANYAQKFQGRVTITADESTSTAYMELSSLRSEDTAVYYCARGQVLIWTYYYGMDVWGQGTTVTVSS", "VL": "DIRLTQSPSSLSASVGDRVTITCQASQDISNYLNWYQQKPGKAPKLLIYDASNLETGVPSRFSGSGSGTDFTFIISSLQPEDIATYYCQQYDNLPLTFGGGTKLEIKR", "notes": "full-length human IgG1/kappa"}, "B6": {"name": "12mer DQ2.5-glia-α2 peptide (free) (peptide)", "peptide": "PQPELPYPQPQL", "notes": "also called free peptide"}, "B7": {"name": "12mer DQ2.5-glia-α1a peptide (free) (peptide)", "peptide": "QLQPFPQPELPY", "notes": "also called free peptide"}, "B8": {"name": "R2A1-8E hIgG1 (antibody, V domains shown)", "VH": "B4 VH", "VL": "DIQVTQSPSFLSASVGDRVTITCRASHDISSYLAWYQHKPGKAPKLLIHAASILQSGVPSRFSGSGSGTEFTLTISSLQPEDFATYYCQQLNSYPLLTFGGGTKVDIKR", "notes": "full-length human IgG1/kappa made in HEK293E; heavy chain constant region with N297G; also called mAb R2A1-8E"}, "B9": {"name": "33mer α-gliadin peptide (peptide)", "peptide": "LQLQPFPQPELPYPQPELPYPQPELPYPQPQPF"}}, "key": {"BSA [1]": {"biological_target": "T1, BSA (Bos taurus, UniProt P02769)", "T1 construct": "not specified; also called bovine serum albumin", "T1 sequence (P02769 25-607 limits assumed)": "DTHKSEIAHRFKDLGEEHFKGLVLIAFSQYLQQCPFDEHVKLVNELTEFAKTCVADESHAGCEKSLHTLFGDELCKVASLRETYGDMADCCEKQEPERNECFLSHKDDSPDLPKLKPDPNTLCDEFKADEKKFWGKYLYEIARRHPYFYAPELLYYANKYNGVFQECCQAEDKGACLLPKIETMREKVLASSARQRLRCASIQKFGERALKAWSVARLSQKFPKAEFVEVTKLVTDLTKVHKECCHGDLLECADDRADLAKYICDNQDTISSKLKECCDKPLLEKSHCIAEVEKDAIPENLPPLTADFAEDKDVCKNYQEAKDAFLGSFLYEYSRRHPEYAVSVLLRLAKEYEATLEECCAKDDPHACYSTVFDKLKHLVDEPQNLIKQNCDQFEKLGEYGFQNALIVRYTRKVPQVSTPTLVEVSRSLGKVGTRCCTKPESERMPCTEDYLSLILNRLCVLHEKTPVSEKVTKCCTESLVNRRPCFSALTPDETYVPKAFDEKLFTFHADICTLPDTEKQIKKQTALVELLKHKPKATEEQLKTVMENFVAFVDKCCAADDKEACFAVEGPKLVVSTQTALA", "test": "ELISA, hIgG1, control well with BSA", "description": "FIG. 14. […] The peptides are annotated according to Sollid, L. M., et al., (Immunogenetics, 2012, 64(6): 455-460) (A). […] Error bars illustrate mean±SD of duplicates. […] HSA=human serum albumin; BSA=bovine serum albumin.\nAssays were performed at RT with duplicate wells. Between each layer, the plates were washed 3× with PBST."}, "BSA [2]": {"biological_target": "T1, BSA", "test": "ELISA, hIgG1 (printed anti-glia1a_no106), control well with BSA"}, "33mer α-gliadin peptide": {"biological_target": "B9", "test": "competition ELISA, hIgG1 pre-incubated with competitor", "description": "(§1) FIG. 2. […] (C) Eight different HLA-DQ2.5:gluten peptide complexes and HLA-DQ2.5:CLIP2 were used in ELISA for specificity analysis (n=2). mAb 2.12.E11 was included to control pMHC capture levels.\n(§2) 96-well MaxiSorp microtiter plates (Nunc) were coated overnight at 4° C. with NeutrAvidin (Avidity, 10 ug/ml in PBS), before blocking with 4% skim milk powder in PBS (w/v). Biotinylated pMHC was captured onto the NeutrAvidin. […] 0.2 μg/ml mAb 2.12.E11 [Viken, H. D., et al., 1995] was detected using polyclonal anti-mouse IgG Fc-ALP (Sigma, 1:2000). […] Assays were performed at RT with duplicate wells, except for single clone screenings with only one well per sample."}, "[3]": {"biological_target": "B6", "test": "competition ELISA, hIgG1 pre-incubated with competitor", "description": "as §1, §2"}, "[4]": {"biological_target": "B7", "test": "competition ELISA, hIgG1 pre-incubated with competitor", "description": "as §1, §2"}, "R3A2-9F hIgG1 [5]": {"biological_target": "B3", "test": "competition ELISA: 0.1 µg/ml hIgG1 pre-incubated with the competitor, then binding to plate-bound HLA-DQ2.5:DQ2.5-glia-α1a", "description": "as §1, §2"}, "R4A1-3A (107) hIgG1 [6]": {"biological_target": "B4", "test": "competition ELISA: 0.1 µg/ml hIgG1 pre-incubated with the competitor, then binding to plate-bound HLA-DQ2.5:DQ2.5-glia-α1a", "description": "as §1, §2"}, "R2A1-8E hIgG1 [7]": {"biological_target": "B8", "test": "competition ELISA: 0.1 µg/ml hIgG1 pre-incubated with the competitor, then binding to plate-bound HLA-DQ2.5:DQ2.5-glia-α1a", "description": "as §1, §2"}, "R3A2-9F hIgG1 [8]": {"biological_target": "B3", "test": "competition ELISA: 0.1 µg/ml hIgG1 pre-incubated with 33mer α-gliadin, then binding to plate-bound HLA-DQ2.5:DQ2.5-glia-α1a", "description": "as §1, §2"}, "R4A1-3A (107) hIgG1 [9]": {"biological_target": "B4", "test": "competition ELISA: 0.1 µg/ml hIgG1 pre-incubated with 33mer α-gliadin, then binding to plate-bound HLA-DQ2.5:DQ2.5-glia-α1a", "description": "as §1, §2"}, "R2A1-8E hIgG1 [10]": {"biological_target": "B8", "test": "competition ELISA: 0.1 µg/ml hIgG1 pre-incubated with 33mer α-gliadin, then binding to plate-bound HLA-DQ2.5:DQ2.5-glia-α1a", "description": "as §1, §2"}}, "data": [{"binder": "B1", "values": [{"measurement": "binding result", "setting": "BSA [1]", "value": "no binding (tested: 0.5 µg/ml)"}]}, {"binder": "B2", "values": [{"measurement": "binding result", "setting": "BSA [1]", "value": "no binding (tested: 0.5 µg/ml)"}]}, {"binder": "B3", "values": [{"measurement": "binding result", "setting": "BSA [2]", "value": "no binding (tested: 0.5 µg/ml)"}, {"measurement": "binding result", "setting": "33mer α-gliadin peptide", "value": "no binding (tested: 1 µM)"}, {"measurement": "binding result", "setting": "[3]", "value": "no binding (tested: 1 µM)"}, {"measurement": "binding result", "setting": "[4]", "value": "no binding (tested: 1 µM)"}]}, {"binder": "B4", "values": [{"measurement": "binding result", "setting": "33mer α-gliadin peptide", "value": "no binding (tested: 1 µM)"}, {"measurement": "binding result", "setting": "[3]", "value": "no binding (tested: 1 µM)"}, {"measurement": "binding result", "setting": "[4]", "value": "no binding (tested: 1 µM)"}]}, {"binder": "B5", "values": [{"measurement": "binding result", "setting": "BSA [1]", "value": "no binding (tested: 0.5 µg/ml)"}]}, {"binder": "B6", "values": [{"measurement": "binding result", "setting": "R3A2-9F hIgG1 [5]", "value": "no binding (tested: 1 µM)"}, {"measurement": "binding result", "setting": "R4A1-3A (107) hIgG1 [6]", "value": "no binding (tested: 1 µM)"}, {"measurement": "binding result", "setting": "R2A1-8E hIgG1 [7]", "value": "no binding (tested: 1 µM)"}]}, {"binder": "B7", "values": [{"measurement": "binding result", "setting": "R3A2-9F hIgG1 [5]", "value": "no binding (tested: 1 µM)"}, {"measurement": "binding result", "setting": "R4A1-3A (107) hIgG1 [6]", "value": "no binding (tested: 1 µM)"}, {"measurement": "binding result", "setting": "R2A1-8E hIgG1 [7]", "value": "no binding (tested: 1 µM)"}]}, {"binder": "B8", "values": [{"measurement": "binding result", "setting": "33mer α-gliadin peptide", "value": "no binding (tested: 1 µM)"}, {"measurement": "binding result", "setting": "[3]", "value": "no binding (tested: 1 µM)"}, {"measurement": "binding result", "setting": "[4]", "value": "no binding (tested: 1 µM)"}]}, {"binder": "B9", "values": [{"measurement": "binding result", "setting": "R3A2-9F hIgG1 [8]", "value": "no binding (tested: 1 µM)"}, {"measurement": "binding result", "setting": "R4A1-3A (107) hIgG1 [9]", "value": "no binding (tested: 1 µM)"}, {"measurement": "binding result", "setting": "R2A1-8E hIgG1 [10]", "value": "no binding (tested: 1 µM)"}]}]}
